# Measurements: publication PMC4352895, “Jarid2 Methylation via the PRC2 Complex Regulates H3K27me3 Deposition during Cell Differentiation” (Molecular Cell, 2015)
# B1: fully methylated Jarid2 fragment: peptide containing aa 109–123 (K116me3) coupled through native chemical ligation with the aa 124–450 fragment (protein, UniProt Q92833 109-450, looked up, fragment)
# chain: PRLQAQRKFAQSQPNSPSTTPVKIVEPLLPPPATQISDLSKRKPKTEDFLTFLCLRGSPALPNSMVYFGSSQDEEEVEEEDDETEDVKTATNNASSSCQSTPRKGKTHKHVHNGHVFNGSSRSTREKEPVQKHKSKEATPAKEKHSDHRADSRREQASANHPAAAPSTGSSAKGLAATHHHPPLHRSAQDLRKQVSKVNGVTRMSSLGAGVTSAKKMREVRPSPSKTVKYTATVTKGAVTYTKAKRELVKDTKPNHHKPSSAVNHTISGKTESSNAKTRKQVLSLGGASKSTGPAVNGLKVSGRLNPKSCTKEVGGRQLREGLQLREGLRNSKRRLEEAHQA
# modifications: K116 trimethyl
# notes: peptide containing aa 109–123 (K116me3) coupled through native chemical ligation with the aa 124–450 fragment
# What was measured:
# PRC2 = PRC2 HKMT activity with Jarid2 fragments (aa 109–450), recombinant or native chromatin; format: biochemical; settings: native chromatin; equimolar amounts of Jarid2 fragments aa 109–450; n = 3
# Excerpt: Figure 5 Jarid2 Methylation Regulates PRC2 Enzymatic Activity Depending on Chromatin Environment (A) HKMT assay performed with PRC2-Ezh2 on recombinant oligonucleosomes in the presence of peptides mimicking either Jarid2-K116me2 and me3 or H3K27me3. (B) HKMT assay as in (A) performed with PRC2-Ezh2 reconstituted with either Eed WT or F97A. (C) Table indicating the sequences of the peptides and the relative dissociation constant Kd (μM) for ΔEed binding measured by ITC. (D) Ribbons representation of ΔEed-Jarid2-K116me3 and ΔEed-H3K27me3 complexes. Eed is in gray; Jarid2 peptide is in yellow while H3 peptide is in purple, both in stick representation. Eed aromatic amino acids are in stick and cyan color. Top: top views. Bottom: zoom-in of side views. (E) HKMT assay as in (A) in presence of peptides Jarid2-K116me3 WT or F117A. (F) Left: representation of the chimeric proteins used in the HKMT assay. The red cross indicates the point mutations introduced in the protein to perform native chemical ligation. […] Right: quantification of PRC2-HKMT activity in the presence of the three Jarid2 fragments (mean ± SD, n = 3). […]
# The N-terminal region of Jarid2 comprises distinct domains for both PRC2 and chromatin interactions ([Son et al., 2013]). […] We then monitored PRC2 enzymatic activity on recombinant or native nucleosomes either alone or in the presence of equimolar amounts of Jarid2 fragments (Figure 5F). […]
# PRC2-Ezh2 = test: HKMT assay, PRC2-Ezh2 with Jarid2 fragments, titration of H3K27me3 octamers in recombinant chromatin; format: biochemical; settings: recombinant chromatin with increasing amount of H3K27me3 octamers
# Excerpt: Figure 5 Jarid2 Methylation Regulates PRC2 Enzymatic Activity Depending on Chromatin Environment (A) HKMT assay performed with PRC2-Ezh2 on recombinant oligonucleosomes in the presence of peptides mimicking either Jarid2-K116me2 and me3 or H3K27me3. (B) HKMT assay as in (A) performed with PRC2-Ezh2 reconstituted with either Eed WT or F97A. (C) Table indicating the sequences of the peptides and the relative dissociation constant Kd (μM) for ΔEed binding measured by ITC. (D) Ribbons representation of ΔEed-Jarid2-K116me3 and ΔEed-H3K27me3 complexes. Eed is in gray; Jarid2 peptide is in yellow while H3 peptide is in purple, both in stick representation. Eed aromatic amino acids are in stick and cyan color. Top: top views. Bottom: zoom-in of side views. (E) HKMT assay as in (A) in presence of peptides Jarid2-K116me3 WT or F117A. (F) Left: representation of the chimeric proteins used in the HKMT assay. The red cross indicates the point mutations introduced in the protein to perform native chemical ligation. Red circle indicates K116me3. Right: quantification of PRC2-HKMT activity in the presence of the three Jarid2 fragments (mean ± SD, n = 3). […]
# To evaluate a potential competition between H3K27me3 and Jarid2-K116me3, we reconstituted chromatin in presence of increasing ratios of octamers fully methylated on K27 and monitored PRC2 activity in presence of Jarid2 fragments (Figure 5G). […]
molecule,measurement,setting,value
B1,"stimulation of PRC2 enzymatic activity relative to K116A or K116R fragments, result in words",PRC2,this stimulation was lost
same,"effect of H3K27me3 titration on Jarid2-mediated stimulation of PRC2, result in words",PRC2-Ezh2,no effect on the stimulation of PRC2 mediated by Jarid2
